From patent US20060148057A1, “Thioredoxin mutants and uses thereof” (priority 2002, published 2006)

What was measured:
Type in all cases: cell-based, Bovine
[1] = tested on: ASK1; experiment: Trx-induced ASK1 ubiquitination and degradation in transfected BAEC (Western blot, IP/anti-Ub); conditions: for ASK1 poly-ubiquitination / endogenous ASK1 protein level: BAEC transfected with Trx construct vs control vector; for endogenous ASK1 protein level: Western blot anti-ASK1
Description: Transfection Transfection of EC was performed by Lipofectamine2000 according to manufacturer's protocol (Gibco). Cells were cultured at 90% confluence in 6-well plates and were transfected with total 4 μg plasmid constructs as indicated. Cells were harvested at 36-48 h post-transfection and cell lysates were used for protein assays.
Immunoprecipitation and immunoblotting EC after various treatments were washed twice with cold PBS and lysed in 1.5 ml of cold lysis buffer (50 mM Tris-HC, pH 7.6, 150 mM NaCl, 0.1% Triton X-100, 0.75% Brij 96, 10 μg/ml aprotinin, 10 μg/ml leupeptin, 2 mM PMSF, 1 mM EDTA) for 20 min on ice. Protein concentrations were determined with a Bio-Rad kit. For immunoprecipitation to analyze protein interaction in vivo, 400 μg of cell lysate supematant were incubated with 5 μg of the first protein-specific antiserum (e.g. anti-Trx from Medical & Biological Laboratory) for 2 h with 50 μl of GammaBind plus Sepharose. Immune complexes were collected after each immunoprecipitation by centrifugation at 14,000× g for 10 min followed by 4 washes with lysis buffer. The immune complexes were subjected to Western blot with the second protein (e.g., ASK1)-specific antibody (Santa Cruz Biotech, Santa Cruz, Calif.). The chemiluminescence was detected using an ECL kit according to the instructions of the manufacturer (Amersham Life Science, Arlington Heights, Ill.). For Flag-tagged and HA-tagged proteins, anti-Flag M2 antibody (Sigma) and anti-HA antibody (Roche Diagnostics) were used, respectively.
Trx induces ASK1 ubiquitination and degradation in EC. To determine if Trx affects ASK1 protein stability, BAEC were transfected with Trx-expressing plasmid or a control vector (VC) with Lipofactamine2000. Transfection efficiency was determined by transfection of a GFP construct under a fluorescence microscope and usually reached 90% in BAEC and 10% in HUVEC. The high transfection efficiency in BAEC allowed us to examine effects of transgene on endogenous ASK1. Endogenous ASK1 was determined by Western blot with anti-ASK1. […] The high molecular bands are usually ubiquitination of target proteins for degradation (Laney J D et al. Substrate targeting in the ubiquitin system. Cell 97:427-30 (1999)). […] The ubiquitination of ASK1 was also confirmed by co-expression of ASK1 and HA-tag Ub (Treier et al. Ubiquitin-dependent c-Jun degradation in vivo is mediated by the delta domain. Cell 78:787-98 (1994)).

[2] = tested on: JNK; experiment: ASK1-induced JNK activation in BAEC, in vitro kinase assay with GST-c-Jun; conditions: co-expression with ASK1 1:1, 24 h post-transfection
Description: J Immunol. 159:3508-18 (1997)) using GST-MKK4 and GST-c-Jun (1-80) fusion protein as a substrate, respectively. Briefly, total 400 μg cell lysates were immunoprecipitated with 5 μg of antibody against ASK1 or JNK1 (Santa Cruz). The immunoprecipitates were mixed with 10 μg GST-MKK4 or GST-c-Jun (1-80) suspended in the kinase buffer (20 mM Hepes, pH 7.6, 20 mM MgCl2, 25 mM β-glycerophosphate, 100 μM sodium orthovanadate, 2 mM DTT, 20 μM ATP) containing 1 μl (10 μCi) of [γ-32P] ATP. The kinase assay was performed at 25° C. for 30 min. The reaction was terminated by the addition of Laemmli sample buffer and the phosphorylated GST-MKK4 or GST-c-Jun (1-80) was visualized by autoradiography.
Trx-C32S and Trx-C35S (but not Trx-WT) inhibits ASK1-mediated EC apoptosis induced by TNF. To determine the biological consequence of Trx-induced ASK1 ubiquitination/degradation, the effects of Trx on ASK1-induced apoptosis were examined. ASK1-induced activation of JNK and caspase 3 has been implicated in cell d e a t h (Hatai T et al. Execution of apoptosis signal-regulating kinase 1 (ASK1) induced apoptosis by the mitochondria-dependent caspase activation. J Biol Chem.275:26576-81 (2000); Tournier C et al. Requirement of JNK for stress-induced activation of the cytochrome c- mediated death pathway. Science. 288:870-4 (2000)). First, the effects of Trx on JNK activation induced by ASK1 were examined. BAEC were co-transfected with ASK1 and Trx expression constructs as indicated, and JNK activity was measured by an in vitro kinase assay using GST-c-Jun as a substrate. […] Co-expression of Trx-WT, Trx-C32S and Trx-C35S (but not Trx-CS) inhibited ASK1-induced JNK activity (FIG. 6A top panel). Western blot with anti-Flag indicated equal amounts of Trx proteins were expressed (FIG. 6A bottom panel). Similar results were obtained in human EC (HUVEC).

[3] = tested on: Akt; experiment: ASK1-induced inhibition of IGF1-induced Akt phosphorylation in EC (Western blot p-Ser473); conditions: co-expression with ASK1, IGF1 10 ng/ml for 10 min
Description: EC were transfected with plasmids as indicated: control vector (VC), HA-Akt, HA-ASK1 with different Trx constructs. Cells were treated with IGF1 (10 ng/ml for 10 min). Akt hosphorylation was examined by western blot with phospho-Akt (Ser473)-specific antibody (p-Akt). Akt and ASK1 expression were determined by western blot with anti-HA.
To determine a role of ASK1 in ROS/TNF-induced IR (impairment of insulin/IGF1 signaling) in EC, the effects of ASK1 activation on IGF1-induced phosphorylation of IRS-1, Akt and eNOS activity were examined. IGF-1 was chosen because cultured EC express IGF1 receptor at higher level than that of insulin receptor. BAEC were transfected with VC or ASK1 expression construct, cells were treated with IGF1 (10 ng/ml) for indicated time. SOCS3 was used as a control which has been shown as a suppressor of IRS-1 activation. Activation (tyrosine phosphorylation) of IRS-1 was determined by IP/Western blot with anti-phosphotyrosine. Akt phosphorylation at Ser-473, a hallmarker for Atk activity was determined by Western blot with p-Ser473-specific antibody. The eNOS enzymatic activity was also by an enzymatic assay based on the conversion of 3H-L-arginine to 3H-citrulline (Calbiochem, Nitric Oxide Synthase Assay Kit).
To determine if Trx protects ASK1-induced inhibition on IGF1 signaling, Trx and ASK1 were coexpressed as in the above experiments. […] To test this, the effects of TZDs (insulin-sensitizers) and statins on ASK1 activity were tested. […] Inhibition of ASK1 may due to their anti-oxidant activities of these drugs which may be indirect by inhibiting TNF-dependent generation of ROS.

B1: thioredoxin (protein)
chain: MVKQIESKTAFQEALDAAGDKLVVVDFSATWCGPCKMIKPFFHSLSEKYSNVIFLEVDVDDCQDVASECEVKCMPTFQFFKKGQKVGEFSGANKEKLEATINELV
modifications: Flag tag or GST fusion
notes: Flag-tagged or GST fusion
With B1 the “ubiquitination and degradation of ASK1-ΔN” value ([1]; BAEC co-transfected with ASK1-ΔN (lacks N-terminal Trx-binding domain)) was “did not induce ubiquitination and degradation”, the ASK1 poly-ubiquitination [1] was “increased ASK1 poly-ubiquitination” and the “endogenous ASK1 protein level” value [1] was “decrease in ASK1 protein”. The “endogenous ASK1 protein level” value ([1]; listed as Trx) was “decreased protein level of ASK1”, the ASK1 poly-ubiquitination ([1]; listed as Trx) was “significantly increased ASK1 ubiquitination” and the “ASK1-induced JNK activity” value [2] was “inhibited”. The “ASK1-induced reduction of Akt phosphorylation” value (shortened to “ASK1-induced reduction”) [3] was “prevents”.

B2: Trx-C35S: C35S single mutant of Trx at the catalytic site, SEQ ID NO:3 (protein)
chain: MVKQIESKTAFQEALDAAGDKLVVVDFSATWCGPSKMIKPFFHSLSEKYSNVIFLEVDVDDCQDVASECEVKCMPTFQFFKKGQKVGEFSGANKEKLEATINELV
For B2, the ASK1 poly-ubiquitination [1] was “increased ASK1 poly-ubiquitination”, the “endogenous ASK1 protein level” value [1] was “decrease in ASK1 protein” and the “ASK1-induced JNK activity” value [2] was “inhibited”. The “ASK1-induced reduction” value [3] was “prevents”.

B3: Trx-C32S: C32S single mutant of Trx at the catalytic site, SEQ ID NO:2 (protein)
chain: MVKQIESKTAFQEALDAAGDKLVVVDFSATWSGPCKMIKPFFHSLSEKYSNVIFLEVDVDDCQDVASECEVKCMPTFQFFKKGQKVGEFSGANKEKLEATINELV
B3 was tested, and the ASK1 poly-ubiquitination [1] was “increased ASK1 poly-ubiquitination”, the “endogenous ASK1 protein level” value [1] was “decrease in ASK1 protein” and the “ASK1-induced JNK activity” value [2] was “inhibited”. The “ASK1-induced reduction” value [3] was “prevents”.
